Test [1] deals with T1, purified human PRL-3 (human, UniProt O75365 1-173, limits assumed).
T1 construct: Antigen of the KinExA analysis; also called PTP4A3; PRL-3 antigen
The test is described as follows: KinExA kinetic exclusion assay, purified antibody and purified human PRL-3.

Test [2] addresses T1, purified human PRL-3. The test is described as follows: KinExA kinetic exclusion assay.

T1 sequence (O75365 whole entry): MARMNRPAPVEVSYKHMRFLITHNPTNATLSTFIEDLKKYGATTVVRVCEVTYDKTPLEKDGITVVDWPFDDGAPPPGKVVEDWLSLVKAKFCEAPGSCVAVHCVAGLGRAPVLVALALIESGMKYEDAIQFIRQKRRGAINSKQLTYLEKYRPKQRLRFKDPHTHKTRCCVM

B1: PRL3-zumab (antibody, V domains shown)
VH: QVQLVQSGAEVKKPGASVKVSCKASGYTFTNYYMHWVRQAPGQLEWMGWIYPGNVNTYYNEKFRGRVTITADTSASTAYMLSSLRSEDTAVYYCASEEKNYPWFAYWGQGTLVTS
VL: DTQLTQSPSSLSASVGDRVTICKASQSVEDDGENYMNWYQQKPGSPKLLIYAASNLESGIPARFSGSGSGTDFTLTISSLPEDFATYYCQQSNEDPFTFGSGTKLEIK
B1: the affinity in test [1], expressed as Kd, was 6.29 pM. In test [2], this molecule registered a koff of 6.68e-05 s⁻¹ and an association rate constant (kon) of 1.06e+07 M⁻¹ s⁻¹.

These data come from patent publication US20200181283A1 (AGENCY FOR SCIENCE TECHNOLOGY AND RESEARCH, published 2020).
